# Experimental data published in article PMC3675498.
# Like-named read-outs stand apart in the source and are kept apart here.
# How the values were obtained:
# Test in all cases: EMSA
# [1] = biological target: T1, H3 octamer (H3/H4/H2A/H2B), splits to hemisome (UniProt P61830;P02309;P04911;P02293 2-136;2-103;2-132;2-131)
# [2] = biological target: Cse4-Δ90 octamer (UniProt P36012;P02309;P04911;P02293 91-229;2-103;2-132;2-131)
# [3] = biological target: T2, Cse4 octamer (Cse4/H4/H2A/H2B), splits to hemisome (UniProt P36012;P02309;P04911;P02293 1-229;1-103;1-132;1-131)
# T2 sequence (P36012 whole entry, chain 1 of 2): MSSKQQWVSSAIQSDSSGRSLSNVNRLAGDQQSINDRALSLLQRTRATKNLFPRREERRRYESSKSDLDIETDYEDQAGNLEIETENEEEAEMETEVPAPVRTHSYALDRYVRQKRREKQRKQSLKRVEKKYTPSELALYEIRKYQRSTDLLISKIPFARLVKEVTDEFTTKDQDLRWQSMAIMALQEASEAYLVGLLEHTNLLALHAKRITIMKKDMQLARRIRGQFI
# T2 sequence (P02293 whole entry, chain 4 of 2): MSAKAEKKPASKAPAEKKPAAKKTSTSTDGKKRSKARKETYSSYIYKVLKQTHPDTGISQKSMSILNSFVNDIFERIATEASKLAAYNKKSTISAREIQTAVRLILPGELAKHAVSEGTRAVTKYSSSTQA
# [4] = biological target: T2, Cse4 octamer (Cse4/H4/H2A/H2B), splits …; remark: listed apart in the source
# [5] = biological target: T1, H3 octamer (H3/H4/H2A/H2B), splits to …; remark: listed apart in the source
# T1 sequence (P04911 2-132, chain 3 of 2): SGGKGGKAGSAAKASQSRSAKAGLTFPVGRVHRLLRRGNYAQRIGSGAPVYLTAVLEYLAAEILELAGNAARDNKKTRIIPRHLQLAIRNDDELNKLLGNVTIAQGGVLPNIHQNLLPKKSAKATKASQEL
# T1 sequence (P02293 2-131, chain 4 of 2): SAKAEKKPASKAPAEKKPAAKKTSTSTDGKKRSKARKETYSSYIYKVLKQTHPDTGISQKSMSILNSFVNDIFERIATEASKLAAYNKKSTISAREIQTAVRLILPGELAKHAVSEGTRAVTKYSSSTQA
# Chain of Cse4-Δ90 octamer (P04911 2-132, stated change not applied, chain 3 of 2): as the sequence (P04911 2-132, chain 3 of 2) above
# Chain of Cse4-Δ90 octamer (P02293 2-131, stated change not applied, chain 4 of 2): as the sequence (P02293 2-131, chain 4 of 2) above
Binder,binding result [1],binding result [2],binding result [3],binding result [4],binding result [5]
α62 (dsDNA) DNA 1: CCTGCAGATACTACCAAAAGTGTATTTGGAAACTGCTCCATCAAAAGGCATGTTCAGCTGGA DNA 2: TCCAGCTGAACATGCCTTTTGATGGAGCAGTTTCCAAATACACTTTTGGTAGTATCTGCAGG,binds,binds,binds,–,–
Cen4 CDEII 78 bp (dsDNA) DNA 1: CTTATAATCAACTTTTTTAAAAATTTAAAATACTTTTTTATTTTTTATTTTTAAACATAAATGAAATAATTTATTTAT DNA 2: ATAAATAAATTATTTCATTTATGTTTAAAAATAAAAAATAAAAAAGTATTTTAAATTTTTAAAAAAGTTGATTATAAG,–,–,–,binds,binds
